{"source": "paper PMC11869522", "about": "“Competitive displacement of lipoprotein lipase from heparan sulfate is orchestrated by a disordered acidic cluster in GPIHBP1” (Journal of Lipid Research, 2025)", "key": {"[1]": {"test_system": "hLPL bound to immobilized heparan sulfate", "assay": "GPIHBP1-mediated extraction of LPL from HSPGs (SPR, immobilized heparin dp4 fragments)", "format": "binding, human", "details": "12.5–200 nM GPIHBP1 proteins, 0.1–1.6 μM sulfated GPIHBP1^1–33, or GPIHBP1^34–131 with 1 μM sulfated GPIHBP1^1–33", "from_the_text": "To mimic electrostatic conditions found in the sub-endothelial spaces where surface-bound heparan-sulfate proteoglycans (HSPGs) are abundant, we designed a surrogate sensor surface using a streptavidin-coated CM5 sensor chip to capture high densities of biotinylated synthetic heparin dp4 fragments ([28], [29]). The reference surface was loaded with a neutral and non-sulfated fragment (M09 S00 from Iduron), while the active surface was loaded with a negatively charged fragment (M09 S08a from Iduron) containing N- and O-6-linked sulfations on each of the […] glucosamine residues in the DP4 fragment. Only the highly sulfated oligosaccharide bound LPL, and those interactions were transient with high off-rates. Despite the very transient nature of this binding, we created a stable reservoir of hLPL on the sensor surface by combining the fast kinetics of polyelectrolyte interactions with severe mass transport limitation—the latter phenomenon impedes LPL escape from the surface due to the fast rebinding that is favored by the high densities of immobilized heparin fragments (300 fmol/mm^2). For each experiment, 12.5 nM hLPL was loaded for 100 s at a flow rate of 20 μl/min in 10 mM Hepes (pH 7.4), 150 mM NaCl, 4 mM CaCl2, 10% (vol/vol) glycerol, 0.05% (vol/vol) surfactant P20, 1 mg/ml defatted BSA, […], and 0.05% (wt/vol) NaN3.\nTo compare the ability of GPIHBP1^1–131 and its charge variants to bind and extract hLPL from this dynamic reservoir, we injected twofold serial dilutions of 1.25–200 nM GPIHBP1^1–131; 1.25–200 nM GPIHBP1^Cluster1-neutral; GPIHBP1^Cluster2-neutral; 1.25–200 nM GPIHBP1^34–131; 0.1–1.6 μM GPIHBP1^1–33 with Tyr^18–SO4; or 1.25–200 nM GPIHBP1^34–131 in the presence of 1 μM sulfated GPIHBP1^1–33 for 250 s at 20 μl/min in 10 mM Hepes (pH 7.4), 150 mM NaCl, 4 mM CaCl2, 10% (vol/vol) glycerol, 0.05% (vol/vol) surfactant P20, 0.2 mg/ml fatty acid-free BSA, and 0.05% (wt/vol) NaN3. At the end of each cycle, two consecutive injections of 10 μl 3 M guanidinium chloride regenerated the chip.\nGPIHBP1’s ability to displace LPL from its HSPG-bound state in the sub-endothelial spaces is essential for the trans-endothelial trafficking of LPL to the luminal surface of capillary cells ([29]). The importance of the acidic tail in this process is supported by solid evidence from surrogate in vitro models and in vivo studies in gene-edited mice ([28], [29]). It was therefore important to determine the relative impact of the two charge-clusters in GPIHBP1 on their ability to disrupt LPL•HSPG interactions. To gain this insight, we measured the ability of different GPIHBP1 charge variants to displace hLPL from a SPR sensor chip surface coupled with a high density of immobilized small heparin-like fragments ([28]). […]"}, "[2]": {"molecular_target": "T1, Human LPL (lipoprotein lipase) (human, UniProt P06858 28-475, R324A)", "T1 sequence (looked up)": "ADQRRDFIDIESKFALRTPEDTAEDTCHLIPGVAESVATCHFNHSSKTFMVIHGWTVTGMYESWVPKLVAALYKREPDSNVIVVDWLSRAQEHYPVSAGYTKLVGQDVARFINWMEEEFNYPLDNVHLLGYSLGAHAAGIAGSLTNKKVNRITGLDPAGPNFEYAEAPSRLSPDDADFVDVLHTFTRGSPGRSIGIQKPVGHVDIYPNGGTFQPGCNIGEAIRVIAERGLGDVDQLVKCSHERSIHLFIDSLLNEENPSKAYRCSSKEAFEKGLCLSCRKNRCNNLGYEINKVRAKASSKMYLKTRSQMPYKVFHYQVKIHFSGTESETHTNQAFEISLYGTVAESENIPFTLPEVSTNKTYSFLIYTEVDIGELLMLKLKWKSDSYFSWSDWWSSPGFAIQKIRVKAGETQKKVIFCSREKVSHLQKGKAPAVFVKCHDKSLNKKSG", "assay": "cell-based or functional assay"}, "Bovine LPL": {"molecular_target": "T2, Bovine LPL (bovine, UniProt P11151 29-478)", "T2 construct": "also called bLPL; source: purified from fresh bovine milk", "T2 sequence (looked up)": "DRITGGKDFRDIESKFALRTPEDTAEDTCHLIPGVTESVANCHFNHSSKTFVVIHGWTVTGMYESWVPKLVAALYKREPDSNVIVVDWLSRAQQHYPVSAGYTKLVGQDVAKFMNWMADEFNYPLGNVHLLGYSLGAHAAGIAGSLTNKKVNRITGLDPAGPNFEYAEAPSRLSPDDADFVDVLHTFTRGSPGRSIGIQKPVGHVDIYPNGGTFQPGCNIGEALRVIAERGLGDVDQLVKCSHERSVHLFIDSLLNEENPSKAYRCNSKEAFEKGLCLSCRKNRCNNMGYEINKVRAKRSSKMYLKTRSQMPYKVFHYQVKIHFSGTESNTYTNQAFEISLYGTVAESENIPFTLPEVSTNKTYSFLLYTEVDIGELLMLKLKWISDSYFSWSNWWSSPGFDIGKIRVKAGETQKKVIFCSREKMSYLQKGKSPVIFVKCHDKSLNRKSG", "assay": "native gel or EMSA; native PAGE of purified GPIHBP1 charge variants with hLPL, bLPL or mLPL (supplemental Fig. S1)", "details": "both partners purified"}, "bLPL": {"test_system": "bLPL", "assay": "PCSK3 cleavage of LPL (SDS-PAGE densitometry)", "format": "biochemical, bovine", "details": "20 μM bLPL, 4 units PCSK3, 2 μM ANGPTL4, no GPIHBP1; 25°C, pH 7.0; 110 min without ANGPTL4", "procedure": "To determine if charge-variants of GPIHBP1 confer distinct resistance to ANGPTL4-facilitated cleavage of LPL after Arg^324 by PCSK3 ([33]), we incubated purified bLPL (20 μM) with PCSK3 (4 units) for 0–240 min, either alone or in the presence of ANGPTL4 (2 μM) and/or GPIHBP1 (25 μM) at 25°C in 10 mM 2-(N-morpholino) ethane sulfonic acid (MES), 150 mM NaCl, 1 mM CaCl2, pH 7.0. We tested four different GPIHBP1 variants: GPIHBP1^1–131, GPIHBP1^Cluster1-neutral, GPIHBP1^Cluster2-neutral, and GPIHBP1^34–131 (LU domain only). PCSK3 cleavage was stopped by boiling in SDS-PAGE sample buffer (reduced and alkylated) and the degree of cleavage was assessed by SDS-PAGE using 12% Bis-Tris SDS-PAGE gels followed by densitometric scanning of the corresponding Coomassie blue–stained SDS-polyacrylamide gels.\nSecretion of LPL by adipocytes is modulated in an autocrine manner by ANGPTL4. […] In the presence of endogenous ANGPTL4, a significant fraction of LPL was cleaved by PCSK3 in the trans-Golgi compartment. […] The presence of GPIHBP1 dramatically delayed PCSK3 cleavage of LPL ([33]). To assess the role of the acidic tail in GPIHBP1 on this delay, we incubated 20 μM bLPL with 4 units of PCSK3 either alone or in the presence of 2 μM ANGPTL4. We observed that the presence of sub-stoichiometric amounts of ANGPTL4 reduced the half-life of intact bLPL from 110 min to less than 5 min (Fig. 5A). […] Our results emphasized the essential role of GPIHBP1’s acidic tail in protecting LPL against ANGPTL4-induced cleavage by PCSK3.\nFig. 5 GPIHBP1 reduces ANGPTL4-facillitated PSCK3 cleavage of LPL. 20 μM bLPL was incubated with 4 units of PSCK3 for 0–240 min at 25°C and the extent of LPL cleavage after Arg^324 was assessed by densitometric scanning of Coomassie–blue stained polyacrylamide after SDS-PAGE of reduced and alkylated samples. A: PSCK3 cleavage of LPL is accelerated by the presence of 2 μM ANGPTL4—present at sub-stoichiometric amounts compared to bLPL (20 μM). 25 μM intact GPIHBP1, but not GPIHBP1^34–131 mitigates PSCK3 cleavage of LPL. B: Both GPIHBP1^Cluster1-neutral and GPIHBP1^Cluster2-neutral rescue LPL from cleavage by PSCK3 in the absence of ANGPTL4 and both are more efficient than GPIHBP1^34–131. C: in the presence of 2 μM ANGPTL4, 25 μM GPIHBP1^Cluster1-neutral protects LPL from PSCK3 cleavage more efficiently than the GPIHBP1^Cluster2-neutral, which indicates a more prominent role of acidic cluster 2 in protecting LPL from ANGPTL4-catalyzed unfolding and subsequent PSCK3 cleavage. Shown are the mean values (±SEM) for intact LPL relative to that present at time 0 min for 3–5 independent time-course experiments. Some curves appear in multiple panels to increase clarity."}}, "note": "Where no end group is shown, it is not given here. The star is where a group is joined. sulfate = O=S(=O)(O)*", "data": [{"molecule": "sulfated GPIHBP1^1–33: GPIHBP1^1–33 peptide carrying a tyrosyl-sulfation (Tyr^18) (QTQQEEEEEDEDHGPDDY(sulfate)DEEDEDEVEEEETNR; UniProt Q8IV16 21-53, looked up, fragment)", "values": [{"measurement": "competitive displacement of HSPG-bound hLPL (in words)", "setting": "[1]", "value": "not perturbed"}]}, {"molecule": "GPIHBP1^1–131/R38G (domain or fragment, human, UniProt Q8IV16 21-151, looked up, sulfated Tyr18; one bi-antennary N-linked glycosylation) QTQQEEEEEDEDHGPDDYDEEDEDEVEEEETNRLPGGGSRVLLRCYTCKSLPRDERCNLTQNCSHGQTCTTLIAHGNTESGLLTTHSTWCTDSCQPITKTVEGTQVTMTCCQSSLCNVPPWQSSRVQDPTG", "values": [{"measurement": "reduction in hLPL levels on the heparan sulfate sensor surface after GPIHBP1 injections (12.5–200 nM), SPR", "setting": "[2]", "value": 68.1, "unit": "%"}]}, {"molecule": "GPIHBP1^Cluster2-neutral (domain or fragment, human, UniProt Q8IV16 21-151, looked up, Tyr18 sulfation absent; one bi-antennary N-linked glycosylation, Construct from VectorBuilder Inc; source: Drosophila S2-cells, secreted, purified, D3 tag removed; not shown: uPAR domain III, N-terminal, cleaved) QTQQEEEEEDEDHGPDDYNQQNQNQVQQQQTNRLPGGGSRVLLRCYTCKSLPRDERCNLTQNCSHGQTCTTLIAHGNTESGLLTTHSTWCTDSCQPITKTVEGTQVTMTCCQSSLCNVPPWQSSRVQDPTG", "values": [{"measurement": "binding result", "setting": "Bovine LPL", "value": "binds"}, {"measurement": "reduction in hLPL levels on the heparan sulfate sensor surface after GPIHBP1 injections (12.5–200 nM), SPR", "setting": "[2]", "value": 1.2, "unit": "%"}]}, {"molecule": "GPIHBP1^Cluster1-neutral (domain or fragment, human, UniProt Q8IV16 21-151, looked up, Tyr18 sulfation present in less than 40%; one bi-antennary N-linked glycosylation, Construct from VectorBuilder Inc; source: Drosophila S2-cells, secreted, purified, D3 tag removed; not shown: uPAR domain III, N-terminal, cleaved) QTQQQQQQQNQNHGPNNYDEEDEDEVEEEETNRLPGGGSRVLLRCYTCKSLPRDERCNLTQNCSHGQTCTTLIAHGNTESGLLTTHSTWCTDSCQPITKTVEGTQVTMTCCQSSLCNVPPWQSSRVQDPTG", "values": [{"measurement": "binding result", "setting": "Bovine LPL", "value": "binds"}, {"measurement": "reduction in hLPL levels on the heparan sulfate sensor surface after GPIHBP1 injections (12.5–200 nM), SPR", "setting": "[2]", "value": 34.8, "unit": "%"}]}, {"molecule": "ANGPTL4: Coiled-coil domain of ANGPTL4 (residues 1–159, N-terminal methionine, C-terminal 6× His-tag) produced in E. coli (protein, UniProt Q9BY76 26-406, looked up) Angiopoietin-related protein 4: GPVQSKSPRFASWDEMNVLAHGLLQLGQGLREHAERTRSQLSALERRLSACGSACQGTEGSTDLPLAPESRVDPEVLHSLQTQLKAQNSRIQQLFHKVAQQQRHLEKQHLRIQHLQSQFGLLDHKHLDHEVAKPARRKRLPEMAQPVDPAHNVSRLHRLPRDCQELFQVGERQSGLFEIQPQGSPPFLVNCKMTSDGGWTVIQRRHDGSVDFNRPWEAYKAGFGDPHGEFWLGLEKVHSITGDRNSRLAVQLRDWDGNAELLQFSVHLGGEDTAYSLQLTAPVAGQLGATTVPPSGLSVPFSTWDQDHDLRRDKNCAKSLSGGWWFGTCSHSNLNGQYFRSIPQQRQKLKKGIFWKTWRGRYYPLQATTMLIQPMAAEAAS", "values": [{"measurement": "half-life of intact bLPL", "setting": "bLPL", "value": "less than 5 min"}]}]}
